# Laboratory results: FireProtDB (doi:10.1006/jmbi.2000.3776)
# B1: Major outer membrane lipoprotein Lpp wild type, P69776 (protein)
# chain: MKATKLVLGAVILGSTLLAGCSSNAKIDQLSSDVQTLNAKVDQLSNDVNAMRSDVQAAKDDAARANQRLDNMATKYRK
# Conditions: Escherichia coli (strain K12); pH 7; 4 °C; GdnHCl; CD; PBS; whole UniProt chain shown
protein,measurement,value
B1,unfolding free energy,18.8 kcal/mol
